B1: PRKX (parent)
chain: KLLVVDRTRRLGNMKNGANDVKHH

Variants of: B1
Assay: protein stability index of a GFP-peptide fusion (GPS, HEK-293T) (PSI 1-6); higher = more stable
Details: c terminus: a fixed tail appended
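Also: lentivirally expressed fusions sorted by FACS into six bins by GFP to DsRed ratio, PSI derived from sequencing read proportions per bin multiplied by bin number.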

Protein stability index: each site, then its substitutions
K15: W 2.48, Q 3.5, M 2.73, C 2.57, F 2.85, Y 2.68, H 3.27, T 2.78, N 2.95, L 2.86, P 2.9, G 3.38, V 2.72, R 3.6, A 3.25, I 2.73, S 3.47, E 3.92, D 3.85
R7: Q 3.97, F 1.83, C 2.6, V 2.81, A 3.79, W 2.5, P 3.62, L 2.92, E 3.7, M 2.43, D 4.05, I 2.13, H 3.03, S 3.21, K 2.56, N 3.25, Y 2.5, T 3.18, G 3.22
D20: E 3.01, Y 2.19, N 2.74, W 2.3, S 2.38, R 2.53, P 2.75, A 3.13, C 2.33, T 2.65, F 2.13, Q 3.13, H 2.89, K 2.55, M 2.71, L 2.41, G 3.27, I 2.09, V 2.6
D6: M 1.97, Y 2.29, R 2.14, W 1.69, F 3.18, H 2.82, G 2.29, V 2.26, I 2.87, K 2.55, N 2.95, T 2.52, Q 2.03, P 2.94, S 2.81, L 1.98
T8: N 2.78, A 3.03, C 2.98, M 2.54, P 2.74, D 3.46, G 2.55, H 2.97, I 1.97, V 3, E 3.38, S 2.67, Q 3.08, K 2.88, Y 2.67, R 2.86, W 2.78, L 2.47, F 2.56
H23: M 2.33, K 3.4, P 3.37, F 2.53, N 3.72, C 2.94, I 2.67, A 3.1, R 2.44, L 2.85, Q 2.69, E 3.44, D 3.68, G 2.92
N19: C 2.66, G 3.12, P 2.97, L 2.47, R 2.54, T 3.11, S 3.16, E 3.3, D 3.12, Q 2.89, W 2.71, K 3.6, M 2.59, V 2.64, I 2.29, A 2.84, Y 2.08, F 2.32, H 2.75
G12: S 3.02, D 3.12, A 2.84, I 2.04, L 2.83, M 2.24, K 2.48, Q 3.19, T 2.95, W 2.19, E 3.38, N 2.6, Y 2.5, P 3.19, H 3, R 2.67, C 2.84, V 2.67, F 2.51
R10: H 3.04, V 3.08, E 4.05, A 3.06, P 3.43, W 2.8, C 2.61, D 3.68, N 3.4, S 4.15, G 3.35, I 2.94, T 3.83, F 2.31, Q 3.65, L 2.82, Y 2.72, K 2.84, M 2.85
A18: T 3.23, W 2.2, F 2.53, P 2.87, R 2.97, D 3.85, I 2.35, N 3.19, Q 2.95, V 2.63, C 3.55, K 3.21, L 2.7, Y 2.29, E 3.67, H 3.34, M 2.16, S 3.27, G 3.27
N13: F 2.02, C 2.62, H 2.81, Q 2.6, Y 3, T 3.09, G 2.84, E 3.6, K 2.81, P 2.75, A 3.44, M 2.51, D 3.46, S 2.91, R 2.75, V 3.02, W 2.6, I 2.54, L 2.31
L11: S 3.27, V 3.09, D 3.84, T 3.47, R 3.65, E 3.7, F 2.93, K 2.93, N 3.6, W 2.67, A 3.23, Y 3.1, G 3.21, M 2.77, I 3.22, P 3.57, C 2.57, Q 3.42, H 3.64
N16: F 2.42, R 2.74, Y 2.38, G 2.84, E 3.18, C 2.13, D 2.85, M 2.26, V 2.62, W 2.26, Q 3.25, T 3.25, K 3.19, I 2.74, P 3.16, S 3.27, L 2.69, H 2.85, A 2.54
G17: S 2.85, A 3.05, Q 3, I 2.74, Y 2.34, N 3.08, D 3.5, C 2.63, P 2.63, W 1.86, K 3.06, R 2.55, E 3.52, F 1.81, M 2.63, V 3.04, L 2.81, T 2.9, H 3.4
R9: M 2.99, F 2.76, I 2.73, N 2.81, P 3.45, Y 2.63, K 2.99, D 3.4, V 2.6, L 2.69, E 3.5, S 3.33, A 3.11, G 3.13, T 3.21, W 2.12, C 2.21, Q 3.38, H 3.07
V21: R 2.79, E 4.12, H 3.43, P 3.37, A 3.5, G 3.47, W 2.62, D 3.54, T 3.39, K 3.54, C 2.67, L 2.66, I 2.55, F 3.22, N 3.74, Q 3.36, Y 2.34, S 3.2, M 3.06
M14: P 2.98, A 3.4, H 3.54, E 3.8, C 2.85, N 3.67, Y 3.03, I 3.31, L 2.89, R 2.77, G 3.74, K 3.85, V 3.22, W 2.62, Q 3.62, D 4.09, S 3.37, F 2.99, T 3
K22: V 2.88, P 3.02, G 3.24, N 3.06, T 2.99, C 2.7, W 2.13, L 2.97, Y 2.5, S 3.52, D 3.42, E 3.58, M 2.51, Q 3.27, H 3.06, R 2.97, F 2.04, I 2.32, A 2.71

Source: the supplement of paper PMC10567573
